The text below walks through data of patent US7531516B2, “Peptidic compounds selectively binding to P-selectin” (Astellas Pharma Europe B.V., priority 2001, dated 2009).

Sequences and labels used below:
B1: Biotin-A17 (peptide)
peptide: {Biotin-Ahx}-CDVEWVDVSC
modifications: cysteine pairing not given here
notes: Only TM11 is said to have been prepared in a cyclized form as well
B2: Biotin-TM11(cyclic) (peptide)
peptide: {Biotin-Ahx}-CDVEWVDVSSLEWDLPC
modifications: disulfide 1-17
B3: Biotin-TM1 (peptide)
peptide: {Biotin-Ahx}-CPEFVDVEGDPGALLAC
modifications: cysteine pairing not given here
notes: Linear compounds were tested in the presence of DTT
B4: Biotin-TM2 (peptide)
peptide: {Biotin-Ahx}-CGWVDVIASGDTATLAC
modifications: cysteine pairing not given here
notes: as for B3
B5: Biotin-SH31 (peptide)
peptide: {Biotin-Ahx}-VGLDPRDWVDVSDYA
B6: Biotin-TM16 (peptide)
peptide: {Biotin-Ahx}-CPDWVDVFKLVEGVMLC
modifications: cysteine pairing not given here
notes: as for B3
B7: DVEAVDVS (peptide)
peptide: {Biotin-Ahx}-DVEAVDVS
notes: Comparative compound
B8: DVEWVDAS (peptide)
peptide: {Biotin-Ahx}-DVEWVDAS
notes: Comparative compound
B9: DVEWVAVS (peptide)
peptide: {Biotin-Ahx}-DVEWVAVS
notes: Comparative compound
B10: DVEWADVS (peptide)
peptide: {Biotin-Ahx}-DVEWADVS
notes: Comparative compound
B11: EWVKVA (peptide)
peptide: {Biotin-Ahx}-EWVKVA
notes: Comparative compound

Positions of bridges follow the written chain, without caps; N, C: chain ends. Residues, ends and D or L forms follow the SMILES beside them. No end group written: not given here. *: point of attachment. Biotin = O=C1N[C@H]2[C@H](CS[C@H]2CCCCC(=O)*)N1; Ahx = NCCCCCC(=O)O

One assay deals with T1, human p-selectin (Homo sapiens, UniProt P16109).
T1 sequence (P16109 42-830): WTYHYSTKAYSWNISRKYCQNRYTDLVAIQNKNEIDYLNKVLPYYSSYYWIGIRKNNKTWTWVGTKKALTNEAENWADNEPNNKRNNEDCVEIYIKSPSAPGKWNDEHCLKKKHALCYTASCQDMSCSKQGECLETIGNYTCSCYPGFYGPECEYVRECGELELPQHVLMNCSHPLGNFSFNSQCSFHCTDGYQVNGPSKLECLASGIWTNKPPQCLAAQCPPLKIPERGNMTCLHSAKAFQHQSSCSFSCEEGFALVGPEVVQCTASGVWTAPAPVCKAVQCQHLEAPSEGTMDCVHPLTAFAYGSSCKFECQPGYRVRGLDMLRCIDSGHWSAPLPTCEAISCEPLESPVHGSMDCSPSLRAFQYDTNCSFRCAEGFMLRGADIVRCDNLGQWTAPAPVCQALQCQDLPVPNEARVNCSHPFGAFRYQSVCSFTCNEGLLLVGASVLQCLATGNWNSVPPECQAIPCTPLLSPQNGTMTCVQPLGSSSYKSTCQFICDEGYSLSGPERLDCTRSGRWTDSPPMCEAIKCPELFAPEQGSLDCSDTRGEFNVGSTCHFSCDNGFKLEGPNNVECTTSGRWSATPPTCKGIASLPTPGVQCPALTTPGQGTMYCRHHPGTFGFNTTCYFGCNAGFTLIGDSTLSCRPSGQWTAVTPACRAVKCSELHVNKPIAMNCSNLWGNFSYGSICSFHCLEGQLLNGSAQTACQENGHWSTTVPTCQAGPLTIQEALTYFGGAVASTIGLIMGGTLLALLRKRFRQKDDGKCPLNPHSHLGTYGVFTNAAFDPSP
Description: Competition ELISA: displacement of TM11-strepPO complex from coated chimeric human P-selectin. The following applies: competition with 2.5 nM TM11-strepPO, 1 hour at 4° C.; linear compounds in the presence of DTT; read-out: Affinity (affinity constant). It counts as binding. The protocol:
The affinity of the compounds to P-selectin was investigated by using an adapted ELISA method. Streptavidin-horseradishperoxidase (strepPO) was incubated with TM11-biotin in a 1 to 4 molar ratio for 2 hours at RT, hereby forming a tetrameric peptide strepPO-complex. For competition studies, microtiter wells were coated with chimeric human p-selectin as described for the isolation of p-selectin binding phage. Wells were then incubated with 2.5 nM TM11-strepPO complex in assay buffer for 1 hour at 4° C., in the presence of titered amounts of peptides to compete for binding to human p-selectin. Linear compounds were tested in the presence of DTT to prevent aggregate formation. After washing 6 times with assay buffer, the wells were incubated with 100 μl TMB/H2O2 for 15 min at RT. The reaction was stopped with 1 M H2SO4 and the absorbance read at 450 nm. From the results, the affinity constants were calculated: […]
Regarding `CC(C)[C@H](NC(=O)[C@H](CC(=O)O)NC(=O)[C@@H](NC(=O)[C@H](Cc1c[nH]c2ccccc12)NC(=O)[C@H](CCC(=O)O)NC(=O)[C@@H](NC(=O)[C@H](CC(=O)O)NC(=O)CCCCCNC(=O)CCCC[C@@H]1SC[C@@H]2NC(=O)N[C@@H]21)C(C)C)C(C)C)C(=O)N[C@@H](CO)C(=O)O` [Biotin-A19] ({Biotin-Ahx}-DVEWVDVS-OH), the IC50 was 12 µM.

In the case of `CC(C)C[C@@H]1NC(=O)[C@H](CO)NC(=O)[C@H](CO)NC(=O)[C@H](C(C)C)NC(=O)[C@H](CC(=O)O)NC(=O)[C@H](C(C)C)NC(=O)[C@H](Cc2c[nH]c3ccccc23)NC(=O)[C@H](CCC(=O)O)NC(=O)[C@H](C(C)C)NC(=O)[C@H](CC(=O)O)NC(=O)[C@@H](NC(=O)CCCCCNC(=O)CCCC[C@@H]2SC[C@@H]3NC(=O)N[C@@H]32)CSSC[C@@H](C(=O)O)NC(=O)[C@@H]2CCCN2C(=O)[C@H](CC(C)C)NC(=O)[C@H](CC(=O)O)NC(=O)[C@H](Cc2c[nH]c3ccccc23)NC(=O)[C@H](CCC(=O)O)NC1=O` [Biotin-TM11(cyclic)] ({Biotin-Ahx}-CDVEWVDVSSLEWDLPC-OH; disulfide 1-17), the IC50 was found to be 2 µM.

In the case of `CC(C)C[C@H](NC(=O)[C@H](CO)NC(=O)[C@H](CO)NC(=O)[C@@H](NC(=O)[C@H](CC(=O)O)NC(=O)[C@@H](NC(=O)[C@H](Cc1c[nH]c2ccccc12)NC(=O)[C@H](CCC(=O)O)NC(=O)[C@@H](NC(=O)[C@H](CC(=O)O)NC(=O)[C@H](CS)NC(=O)CCCCCNC(=O)CCCC[C@@H]1SC[C@@H]2NC(=O)N[C@@H]21)C(C)C)C(C)C)C(C)C)C(=O)N[C@@H](CCC(=O)O)C(=O)N[C@@H](Cc1c[nH]c2ccccc12)C(=O)N[C@@H](CC(=O)O)C(=O)N[C@@H](CC(C)C)C(=O)N1CCC[C@H]1C(=O)N[C@@H](CS)C(=O)O` [Biotin-TM11] ({Biotin-Ahx}-CDVEWVDVSSLEWDLPC-OH), the IC50 turned out to be 2 µM.

The test system of the next assay is Human platelets. The experiment in a line: Inhibition of platelet aggregation. It counts as cell-based. Particulars: human platelets activated by ADV. The protocol: Human platelets were activated by ADV, and the extent of platelet aggregation was measured in the presence or absence of EWVDV (SEQ ID No: 19)-containing peptides.
On to C D V E W V D V S C (CDVEWVDVSC) [A17], for which the “aggregation reduced (second phase of platelet aggregation)” value is around 25%.

Consider D V E W V D V S (DVEWVDVS) [A19], for which the “aggregation reduced (second phase of platelet aggregation)” value is reported as “about 45%”.

In another assay the test system is human P-selectin-IgG. The experiment in a line: Binding of [3H]-cholesterol labeled sulfatide liposomes to human P-selectin-IgG. Particulars: liposomes carrying 22% of sulfatides, 2 hours at 4° C. How it is done:
Liposomes were prepared by sonication from egg yolk phosphatidylcholine, cholesterol, and sulfatides, all dissolved in chloroform/methanol (1:1, v/v), at weight ratios of 4:0.8:1.33. A tracer amount of [^3H]-cholesterol (1.3×10^8 dpm) was added, and the mixture was dried under a stream of nitrogen. The resulting lipid layer was vortexed in PBS and subsequently sonicated, resulting in liposomes with mean particle diameters of 59-62 nm.
Fc-specific goat anti-human IgG in coating buffer (50 mM NaHCO3, pH 9.6) was incubated in a high binding 96 well plate. The next day, wells were washed with assay buffer (20 mM HEPES, 150 mM NaCl, 1 mM CaCl2, pH 7.4) and incubated with blocking buffer (3% BSA in assay buffer). After washing, wells were incubated with human P-selectin-IgG, washed, and subsequently incubated with the [^3H]-cholesterol labeled liposomes in the presence or absence of the compounds below and antibodies for 2 hours at 4° C. After removal of unbound liposomes, bound liposomes were collected and counted using a scintillation counter.
In the case of C D V E W V D V S C (CDVEWVDVSC) [A17], the “inhibition of the binding of sulfatides to P-selectin” value (shortened to “inhibition … to P-selectin”) is “significantly inhibited”.

In the case of D V E W V D V A (DVEWVDVA) [A27], the “inhibition … to P-selectin” value was “significantly inhibited”.

Take D V E W V D V S (DVEWVDVS) [A19]: the “inhibition … to P-selectin” value was “significantly inhibited”.

In the case of “DVEAVDVS [D V E A V D V S, reference compound]”, the “inhibition … to P-selectin” value is listed as “did not”.

On to EWVDV [core motif peptide], for which the “inhibition … to P-selectin” value is recorded as “did not”.

In the next assay the target is T2, chimeric human p-selectin (human, UniProt P16109 42-321).
T2 construct: also called human P-selectin-IgG
T2 sequence (looked up): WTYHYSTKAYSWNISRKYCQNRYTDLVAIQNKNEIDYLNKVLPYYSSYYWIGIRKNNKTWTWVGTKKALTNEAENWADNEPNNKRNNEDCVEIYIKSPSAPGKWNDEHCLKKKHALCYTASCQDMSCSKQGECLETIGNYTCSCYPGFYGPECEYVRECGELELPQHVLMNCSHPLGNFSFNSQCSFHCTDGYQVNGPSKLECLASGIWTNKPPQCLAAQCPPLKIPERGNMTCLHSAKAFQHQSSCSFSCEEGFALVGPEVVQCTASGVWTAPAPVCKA
The experiment in a line: competition ELISA; coated chimeric human P-selectin, competitor 2.5 nM TM11-strepPO complex; column head 'Affinity'.
Settings: not given
How it is done:
(§1) Linear compounds were tested in the presence of DTT to prevent aggregate formation. After washing 6 times with assay buffer, the wells were incubated with 100 μl TMB/H_2O_2 for 15 min at RT. The reaction was stopped with 1 M H_2SO_4 and the absorbance read at 450 nm. From the results, the affinity constants were calculated: […]
Background: An ELISA detects its analyte on a solid surface through an enzyme-linked reagent.
In turn, B1 returned an IC50 of 0.1 µM.

In turn, B2 returned an IC50 of 2 µM.

As to B3, the IC50 stood at 82 µM.

Molecule B4 came in with an IC50 of 49 µM.

In turn, B5 came in with an IC50 of 19 µM.

In turn, B6 returned an IC50 of 12 µM.

Another assay addresses T2, chimeric human p-selectin. Description: affinity to human P-selectin, prepared and tested as in example 1 (competition ELISA against TM11-strepPO complex); column head 'Affinity [µM]'.
Settings: not given
The protocol:
as §1
B7 gave an IC50 of 400000 µM.

Molecule B8 showed an IC50 of 13000 µM.

As for B9, the IC50 was determined as 21000 µM.

As for B10, the IC50 was found to be 1400 µM.

B11 returned an IC50 of 13000 µM.
